Experiments:
[1] = target: T1, human CD203c expressed on the surface of KU812 cells (human, UniProt O14638 1-875); assay: flow cytometry on KU812 cells, MFI (530/30 - 488nm) of live cells
T1 construct: whole, on cells; also called cell-surface CD203c; cell surface CD203c on KU812 cells
T1 sequence (looked up): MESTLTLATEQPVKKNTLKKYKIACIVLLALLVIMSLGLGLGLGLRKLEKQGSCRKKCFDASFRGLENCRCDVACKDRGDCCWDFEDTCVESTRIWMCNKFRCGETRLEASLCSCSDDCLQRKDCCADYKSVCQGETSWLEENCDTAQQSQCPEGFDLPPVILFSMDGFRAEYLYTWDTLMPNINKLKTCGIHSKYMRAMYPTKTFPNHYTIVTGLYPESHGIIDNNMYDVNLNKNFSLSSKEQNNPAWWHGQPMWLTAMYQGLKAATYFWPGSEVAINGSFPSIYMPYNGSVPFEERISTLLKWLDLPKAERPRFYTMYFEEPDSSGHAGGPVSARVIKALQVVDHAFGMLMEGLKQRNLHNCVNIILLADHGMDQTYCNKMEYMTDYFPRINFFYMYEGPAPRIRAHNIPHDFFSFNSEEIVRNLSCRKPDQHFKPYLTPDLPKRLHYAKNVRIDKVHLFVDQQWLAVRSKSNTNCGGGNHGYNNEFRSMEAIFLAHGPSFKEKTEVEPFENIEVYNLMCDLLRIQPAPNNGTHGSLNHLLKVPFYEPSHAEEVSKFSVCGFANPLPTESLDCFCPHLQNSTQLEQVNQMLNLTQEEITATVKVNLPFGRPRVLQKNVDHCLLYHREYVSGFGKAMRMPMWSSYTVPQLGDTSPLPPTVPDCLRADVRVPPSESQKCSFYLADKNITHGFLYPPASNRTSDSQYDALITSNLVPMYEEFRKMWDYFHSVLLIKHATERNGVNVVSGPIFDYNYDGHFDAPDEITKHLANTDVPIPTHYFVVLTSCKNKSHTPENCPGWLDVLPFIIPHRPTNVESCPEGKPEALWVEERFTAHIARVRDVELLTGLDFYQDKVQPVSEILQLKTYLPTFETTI

[2] = target: T2, human CD203c His-tagged recombinant protein (human, UniProt O14638 49-875, limits assumed); assay: direct binding ELISA on human CD203c, absorbance (blank corrected)
T2 construct: also called ENPP3; not shown: His tag
T2 sequence (looked up): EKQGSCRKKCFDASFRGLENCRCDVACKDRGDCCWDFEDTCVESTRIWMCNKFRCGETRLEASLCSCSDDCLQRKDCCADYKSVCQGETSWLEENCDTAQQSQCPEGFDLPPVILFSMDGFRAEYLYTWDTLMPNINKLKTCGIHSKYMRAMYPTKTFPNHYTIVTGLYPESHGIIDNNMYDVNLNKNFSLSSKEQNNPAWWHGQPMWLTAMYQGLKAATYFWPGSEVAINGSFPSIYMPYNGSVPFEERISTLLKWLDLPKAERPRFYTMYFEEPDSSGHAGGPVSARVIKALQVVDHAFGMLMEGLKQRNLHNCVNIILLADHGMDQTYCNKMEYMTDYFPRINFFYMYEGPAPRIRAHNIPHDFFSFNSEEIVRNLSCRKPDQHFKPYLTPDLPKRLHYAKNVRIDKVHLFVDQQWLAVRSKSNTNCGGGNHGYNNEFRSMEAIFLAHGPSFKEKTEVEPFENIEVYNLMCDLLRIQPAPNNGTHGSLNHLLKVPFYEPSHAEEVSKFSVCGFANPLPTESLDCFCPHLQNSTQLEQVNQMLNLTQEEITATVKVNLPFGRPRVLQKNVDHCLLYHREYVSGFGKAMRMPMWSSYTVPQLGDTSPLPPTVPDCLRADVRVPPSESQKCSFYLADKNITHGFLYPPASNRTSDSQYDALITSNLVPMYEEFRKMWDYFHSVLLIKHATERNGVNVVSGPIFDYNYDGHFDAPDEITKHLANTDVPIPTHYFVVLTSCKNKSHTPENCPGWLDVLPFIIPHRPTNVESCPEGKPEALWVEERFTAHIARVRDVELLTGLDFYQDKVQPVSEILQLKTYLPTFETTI

[3] = target: T3, rhesus monkey CD203c His-tagged recombinant protein (rhesus monkey, UniProt F6TH66 31-874); assay: direct binding ELISA on rhesus CD203c, absorbance (blank corrected)
T3 construct: also called rhesus CD203c; not shown: His tag
T3 sequence: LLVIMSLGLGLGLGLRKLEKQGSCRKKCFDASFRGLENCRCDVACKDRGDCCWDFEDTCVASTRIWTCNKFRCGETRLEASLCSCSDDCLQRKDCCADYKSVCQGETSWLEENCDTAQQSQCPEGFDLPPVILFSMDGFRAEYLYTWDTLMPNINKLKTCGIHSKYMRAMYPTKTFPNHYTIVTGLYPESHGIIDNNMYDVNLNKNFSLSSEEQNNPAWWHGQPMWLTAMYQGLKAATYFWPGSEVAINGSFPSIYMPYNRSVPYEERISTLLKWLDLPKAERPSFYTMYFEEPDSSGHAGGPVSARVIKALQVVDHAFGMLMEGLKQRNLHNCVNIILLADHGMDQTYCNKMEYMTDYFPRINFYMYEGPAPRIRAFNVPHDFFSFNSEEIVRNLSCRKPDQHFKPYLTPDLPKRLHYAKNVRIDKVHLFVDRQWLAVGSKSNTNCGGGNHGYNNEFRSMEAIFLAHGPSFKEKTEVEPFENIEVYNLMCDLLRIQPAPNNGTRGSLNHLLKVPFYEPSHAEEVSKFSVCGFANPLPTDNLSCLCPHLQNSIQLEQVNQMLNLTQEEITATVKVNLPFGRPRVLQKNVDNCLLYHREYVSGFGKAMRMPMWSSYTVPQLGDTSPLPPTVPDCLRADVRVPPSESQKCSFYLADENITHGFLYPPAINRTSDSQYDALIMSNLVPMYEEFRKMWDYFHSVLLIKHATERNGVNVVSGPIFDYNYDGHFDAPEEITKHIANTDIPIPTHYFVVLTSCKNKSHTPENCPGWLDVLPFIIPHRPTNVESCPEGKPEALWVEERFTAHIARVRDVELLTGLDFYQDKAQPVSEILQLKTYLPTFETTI

B1: 10 (antibody, V domains shown)
VH: EVQLVQSGAEVKKPGESLKISCKGSGYRFTSYWIGWVRQMPGKGLEWMGIIYPGDSDTRYSPSFQGQVTISADKSISTAYLQWSSLKASDTAMYYCARKDYYYGAMDVWGQGTTVTVSS
VL: DIQMTQSPSSLSASVGDRVTITCRASQGIRTNLAWFQQKPGKAPKSLIYAASSLQSGVPSRFSGSGSGTDFTLTISSLQPEDFATYYCQQYNSYPRTFGGGTKVEIK
notes: also called variant 10; 10 VH domain
B1: binds [1]; binds [2]; binds [3].

B2: 12 (antibody, V domains shown)
VH: EVQLVQSGAEVKKPGESLKISCKGSGYRFTSYWIGWVRQMPGKGLEWMGIIYPGDSDTRYSPSFQGQVTISADKSISTAYLQWSSLKASDTAMYYCARKDYYYGIMDVWGQGTTVTVSS
VL: DIQMTQSPSSLSASVGDRVTITCRASQGIRTNLAWFQQKPGKAPKSLIYAASSLQSGVPSRFSGSGSGTDFTLTISSLQPEDFATYYCQQYNSYPRTFGGGTKVEIK
notes: also called variant 12; 12 VH domain
With B2 the “EC50 (read off the curve)” value [2] was ~0.04 µg/mL and the binding result [3] was “binds”.

B3: C4 (antibody, V domains shown)
VH: EVQLVQSGAEVKKPGESLKISCKGSGYRFGSYWIGWVRQMPGKGLEWMGDIYPGNSDTRYSPSFQGQVTISADKSISTAYLQWSSLKASDTAMYYCARKDYYYYAMDVWGQGTTVTVSS
VL: DIQMTQSPSSLSASVGDRVTITCRASQGIRTNLAWFQQKPGKAPKSLIYAASSLQSGVPSRFSGSGSGTDFTLTISSLQPEDFATYYCQQYNSYPRTFGGGTKVEIK
notes: also called variant C4; C4 VH domain
B3: binds [1]; binds [2].

B4: 26 (antibody, V domains shown)
VH: EVQLVQSGAEVKKPGESLKISCKGSGYRFASHWIGWVRQMPGKGLEWMGEIYPGDSDTRISPSFQGQVTISADKSISTAYLQWSSLKASDTAMYYCARKDYYYYAMDVWGQGTTVTVSS
VL: DIQMTQSPSSLSASVGDRVTITCRASQGIRTNLAWFQQKPGKAPKSLIYAASSLQSGVPSRFSGSGSGTDFTLTISSLQPEDFATYYCQQYNSYPRTFGGGTKVEIK
notes: also called variant 26; 26 VH domain
B4: binds [2]; binds [3].

B5: 13 (antibody, V domains shown)
VH: EVQLVQSGAEVKKPGESLKISCKGSGYRFTSYWIGWVRQMPGKGLEWMGIIYPGDSDTRYSPSFQGQVTISADKSISTAYLQWSSLKASDTAMYYCARKDYYYGSMDVWGQGTTVTVSS
VL: DIQMTQSPSSLSASVGDRVTITCRASQGIRTNLAWFQQKPGKAPKSLIYAASSLQSGVPSRFSGSGSGTDFTLTISSLQPEDFATYYCQQYNSYPRTFGGGTKVEIK
notes: also called variant 13; 13 VH domain
B5: binds [2]; binds [3].

B6: 23 (antibody, V domains shown)
VH: EVQLVQSGAEVKKPGESLKISCKGSGYRFGSYWIGWVRQMPGKGLEWMGEIYPGDSKTRYSPSFQGQVTISADKSISTAYLQWSSLKASDTAMYYCARKDYYYYAMDVWGQGTTVTVSS
VL: DIQMTQSPSSLSASVGDRVTITCRASQGIRTNLAWFQQKPGKAPKSLIYAASSLQSGVPSRFSGSGSGTDFTLTISSLQPEDFATYYCQQYNSYPRTFGGGTKVEIK
notes: also called variant 23; 23 VH domain
B6: binds [2].

B7: 11 (antibody, V domains shown)
VH: EVQLVQSGAEVKKPGESLKISCKGSGYRFTSYWIGWVRQMPGKGLEWMGIIYPGDSDTRYSPSFQGQVTISADKSISTAYLQWSSLKASDTAMYYCARKDYYYGAFDVWGQGTTVTVSS
VL: DIQMTQSPSSLSASVGDRVTITCRASQGIRTNLAWFQQKPGKAPKSLIYAASSLQSGVPSRFSGSGSGTDFTLTISSLQPEDFATYYCQQYNSYPRTFGGGTKVEIK
notes: also called variant 11; 11 VH domain
B7: binds [1]; binds [2]; binds [3].

B8: A5 (antibody, V domains shown)
VH: EVQLVQSGAEVKKPGESLKISCKGSGYRFSSYRIGWVRQMPGKGLEWMGEIYPGDSKTRYSPSFQGQVTISADKSISTAYLQWSSLKASDTAMYYCARKDYYYYAMDVWGQGTTVTVSS
VL: DIQMTQSPSSLSASVGDRVTITCRASQGIRTNLAWFQQKPGKAPKSLIYAASSLQSGVPSRFSGSGSGTDFTLTISSLQPEDFATYYCQQYNSYPRTFGGGTKVEIK
notes: also called variant A5; A5 VH domain
B8: binds [1]; binds [2].

B9: 14 (antibody, V domains shown)
VH: EVQLVQSGAEVKKPGESLKISCKGSGYRFTSYWIGWVRQMPGKGLEWMGIIYPGDSDTRYSPSFQGQVTISADKSISTAYLQWSSLKASDTAMYYCARKDYYYGALDVWGQGTTVTVSS
VL: DIQMTQSPSSLSASVGDRVTITCRASQGIRTNLAWFQQKPGKAPKSLIYAASSLQSGVPSRFSGSGSGTDFTLTISSLQPEDFATYYCQQYNSYPRTFGGGTKVEIK
notes: also called variant 14; 14 VH domain
B9: binds [2]; binds [3].

B10: 15 (antibody, V domains shown)
VH: EVQLVQSGAEVKKPGESLKISCKGSGYRFTSYWIGWVRQMPGKGLEWMGIIYPGDSDTRYSPSFQGQVTISADKSISTAYLQWSSLKASDTAMYYCARKDYYYGTMDVWGQGTTVTVSS
VL: DIQMTQSPSSLSASVGDRVTITCRASQGIRTNLAWFQQKPGKAPKSLIYAASSLQSGVPSRFSGSGSGTDFTLTISSLQPEDFATYYCQQYNSYPRTFGGGTKVEIK
notes: also called variant 15; 15 VH domain
B10: binds [1]; binds [2]; binds [3].

B11: 18 (antibody, V domains shown)
VH: EVQLVQSGAEVKKPGESLKISCKGSGYRFTSYWIGWVRQMPGKGLEWMGIIYPGDSDTRYSPSFQGQVTISADKSISTAYLQWSSLKASDTAMYYCARKDYYYDAMDYWGQGTTVTVSS
VL: DIQMTQSPSSLSASVGDRVTITCRASQGIRTNLAWFQQKPGKAPKSLIYAASSLQSGVPSRFSGSGSGTDFTLTISSLQPEDFATYYCQQYNSYPRTFGGGTKVEIK
notes: also called variant 18; 18 VH domain
B11: binds [2]; binds [3].

From US20260028424A1 (GRANULAR THERAPEUTICS, published 2026)
